{"source": "patent US20130295110A1", "key": {"[1]": {"biological_target": "full length human PSMA (human) (UniProt Q04609)", "sequence (Q04609 whole entry)": "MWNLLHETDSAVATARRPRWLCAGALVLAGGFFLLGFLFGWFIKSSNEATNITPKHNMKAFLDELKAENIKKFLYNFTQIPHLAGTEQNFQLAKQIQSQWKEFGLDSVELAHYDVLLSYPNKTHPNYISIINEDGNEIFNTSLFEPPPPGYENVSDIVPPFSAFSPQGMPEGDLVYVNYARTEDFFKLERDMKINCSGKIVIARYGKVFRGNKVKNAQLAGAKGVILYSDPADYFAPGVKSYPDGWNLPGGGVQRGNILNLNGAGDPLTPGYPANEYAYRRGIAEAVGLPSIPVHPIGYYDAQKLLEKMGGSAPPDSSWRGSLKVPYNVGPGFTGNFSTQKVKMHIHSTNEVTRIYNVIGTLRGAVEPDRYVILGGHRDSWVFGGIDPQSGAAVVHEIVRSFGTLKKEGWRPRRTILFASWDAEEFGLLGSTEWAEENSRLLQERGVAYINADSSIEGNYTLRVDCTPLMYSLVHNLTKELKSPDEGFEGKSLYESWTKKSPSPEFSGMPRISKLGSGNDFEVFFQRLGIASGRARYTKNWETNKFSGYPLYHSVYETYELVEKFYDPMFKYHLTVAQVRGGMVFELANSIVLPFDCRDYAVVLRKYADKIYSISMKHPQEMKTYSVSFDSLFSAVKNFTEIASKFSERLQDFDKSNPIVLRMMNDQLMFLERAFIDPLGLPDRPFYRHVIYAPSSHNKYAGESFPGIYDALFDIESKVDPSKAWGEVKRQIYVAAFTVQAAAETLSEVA", "test": "FACS, 15 ug/ml on LNCaP cells, PE goat anti-mouse IgG (control of FIG. 13 study)"}, "[2]": {"biological_target": "full length human PSMA (human) (UniProt Q04609)", "test": "FACS, 15 ug/ml on LNCaP cells, PE goat anti-mouse IgG (control of FIG. 19 study)"}, "[3]": {"biological_target": "full length human PSMA (human) (UniProt Q04609)", "test": "FACS, 15 ug/ml on LNCaP cells, PE goat anti-mouse IgG (control of FIG. 24 study)"}, "[4]": {"biological_target": "full length human PSMA (human) (UniProt Q04609)", "test": "FACS, 15 ug/ml on LNCaP cells, PE goat anti-mouse IgG (control of FIG. 29 study)"}}}
{"substance": "mouse anti-human PSMA monoclonal antibody, clone J591-A", "values": [{"measurement": "fold-change in MFI over secondary antibody alone", "setting": "[1]", "result": 45.3, "unit": "fold"}, {"measurement": "fold change in MFI over secondary antibody alone", "setting": "[2]", "result": 45.3, "unit": "fold"}, {"measurement": "fold change in MFI over secondary antibody alone", "setting": "[3]", "result": 45.3, "unit": "fold"}, {"measurement": "fold change in MFI over secondary antibody alone", "setting": "[4]", "result": 14.3, "unit": "fold"}]}
